84 variants from the RNAGym collection of RNA variant scans (doi:10.1073/pnas.2313332121) can be followed below.

B1: TPR t1 (parent)
chain: GACCAAUCUGCCCUCAGAGCUCGAGAACAUCUUCGGAUGCAGAGGAGGCAGGCUUCGGUGGCGCGAUAGCGCCAACGUCCUCAACCUCCAAUGCAUCCCACCACAUGAUGAUGCCUGAAGAGCCUUGGUUUUUUG

In this data set the parent is B1. The data set can be described thus: polymerase ribozyme fitness, log enrichment relative to wild type (log ratio); higher = more active; in vitro selection for triplet polymerase activity. In a few lines: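 Each subunit of a heterodimeric triplet polymerase ribozyme was mutagenized into a library by PCR, transcribed, and subjected to one round of in vitro selection, run in triplicate. Libraries were annealed with a biotinylated primer, the partner subunit and triplets, incubated frozen at −7 °C, and extended constructs were gel-excised, captured on streptavidin beads and recovered by RT-PCR. Input and output libraries were sequenced on Illumina, keeping genotypes with ≥10 input reads and ≥1 read per output. Fitness is log base 2 of genotype enrichment divided by wild-type enrichment, from inverse-variance-weighted replicate averages.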
For the variant A50U C102A, the “polymerase ribozyme fitness (log ratio)” value was -2.99. Take C64U A91C G93A G120A U133G: the “polymerase ribozyme fitness (log ratio)” value was -1.92. On to C49A C72U G77U, for which the “polymerase ribozyme fitness (log ratio)” value was -2.22. In the case of C62A U106A, the “polymerase ribozyme fitness (log ratio)” value is -1.37. Consider C15U G52A C62U A74U A83U U132A, for which the “polymerase ribozyme fitness (log ratio)” value was -3.97. For C12U G52U A68G A74G, the “polymerase ribozyme fitness (log ratio)” value was -3.85. Consider G47A C123G, for which the “polymerase ribozyme fitness (log ratio)” value stood at 0.634. In the case of A18G G60U U96G A108U, the “polymerase ribozyme fitness (log ratio)” value was -7.14. In the case of A118G G120C, the “polymerase ribozyme fitness (log ratio)” value is -0.275. In the case of C56A A111C, the “polymerase ribozyme fitness (log ratio)” value was -0.279. As for C12A G113C U126C, the “polymerase ribozyme fitness (log ratio)” value was -3.59. A6G A41C C76U C115U U130A U133A: the “polymerase ribozyme fitness (log ratio)” value is -2.77. To G10U C15G G120A belongs -1.69; to U32C C73U G117U, -2.41; to U33G G36A A111U, -7.33. Under C15U U59G C70U C104A stands -4.32. As for C8G G60C U81A C123A, the “polymerase ribozyme fitness (log ratio)” value is 0.434. Regarding A41C C56G, the “polymerase ribozyme fitness (log ratio)” value was -4.05.

Regarding G63C C88G, the “polymerase ribozyme fitness (log ratio)” value was -1.3. G63A U87C: the “polymerase ribozyme fitness (log ratio)” value is -0.482. To A50U C62U belongs -1.15; to A46U C62G G110A, -5.8.

Turning to A6C A105G U112C G127A, the “polymerase ribozyme fitness (log ratio)” value was -2.69. Regarding U7A G120C, the “polymerase ribozyme fitness (log ratio)” value was 1.32. In the case of U14A A91C C115G U133A, the “polymerase ribozyme fitness (log ratio)” value was -4.89. Under G63A C115A stands -1.19; under G45C C102A, -3.26; under C72A A105U G122A, -2.49. Regarding A2U C3G G58A, the “polymerase ribozyme fitness (log ratio)” value was -2.99. To A41C G58A belongs -0.278; to C13A A108G, -5.35. For G45U C72U, the “polymerase ribozyme fitness (log ratio)” value was -1.63.

With C49U G52A C56G, the “polymerase ribozyme fitness (log ratio)” value is -2.31.

Regarding C8A A68G C73G U78G C101U U112A, the “polymerase ribozyme fitness (log ratio)” value was -5.78. Consider C4A C8A G36A C72G C99G C104A C124U, for which the “polymerase ribozyme fitness (log ratio)” value was -6.92.

For C8A C15A A29U G42U C72G C114U, the “polymerase ribozyme fitness (log ratio)” value was -4.6. Under G19U C72A stands -3.06; under U9C U14G C80G, -6.05; under C15U A41U A90C C115G, -4.18. Take C12U G17U C73U C88U C104A U109A: the “polymerase ribozyme fitness (log ratio)” value was -5.21. With A27G A29G G45A C56G C73A A75G C104A G107A G117U, the “polymerase ribozyme fitness (log ratio)” value is -6.73. In the case of C12U A26U C34A G63A A90C C104U G113C, the “polymerase ribozyme fitness (log ratio)” value is -6.57.

Take A66C C88U G113U: the “polymerase ribozyme fitness (log ratio)” value is -5.8. As to C123U G135C, the “polymerase ribozyme fitness (log ratio)” value amounted to 1.48. Take G10C G110U: the “polymerase ribozyme fitness (log ratio)” value is -2.66. With C15U C49U U55G C73U, the “polymerase ribozyme fitness (log ratio)” value was -1.56. To A18C U55G belongs -1.99; to A18C U55C, -3.52; to C8A G19A C88G A95C, -5.8. As for G42A G61U A83U, the “polymerase ribozyme fitness (log ratio)” value was -2.11.

As for C11U G47C G71U U92G G113C, the “polymerase ribozyme fitness (log ratio)” value was -5.32.

As for C73A U112A A121U U125A, the “polymerase ribozyme fitness (log ratio)” value came to 1.73. For C4A G69U G110A U112A G117A, the “polymerase ribozyme fitness (log ratio)” value is -3.21. For A74U C114A U129A, the “polymerase ribozyme fitness (log ratio)” value is -3.53. Turning to A46G C62U G117U, the “polymerase ribozyme fitness (log ratio)” value was -3.06. C34G C49U: the “polymerase ribozyme fitness (log ratio)” value is -6.27.

For C20A U92G G122U, the “polymerase ribozyme fitness (log ratio)” value is -4.6. Turning to C11A G36A C79U U87A, the “polymerase ribozyme fitness (log ratio)” value is -4.09.

For the variant C3G C4G C53U G60U G93A, the “polymerase ribozyme fitness (log ratio)” value is -3.06. For C11G C72G G117A, the “polymerase ribozyme fitness (log ratio)” value was -0.843. Under A50U C72U U96A U112A stands -1.9; under A83U A100U C123U U125G, 0.186. For the variant C4U C62U A91U G120A, the “polymerase ribozyme fitness (log ratio)” value was -2.44. Under C4G G52A C72U A91U A119U stands -4.02; under G10A C11U, -0.673.

For the variant C72U G113U G120U U130C, the “polymerase ribozyme fitness (log ratio)” value is -3.5. Under C12A C82G stands -1.17. Consider G48A G113C, for which the “polymerase ribozyme fitness (log ratio)” value was -2.26.

With G36C C40A C101A C104U A121U, the “polymerase ribozyme fitness (log ratio)” value was -1.4. With G48C C53G C64G G65A U109G, the “polymerase ribozyme fitness (log ratio)” value was -6.8.

Consider C13U C56G C72A A105U, for which the “polymerase ribozyme fitness (log ratio)” value is -2.1.

In the case of A29G G42A G69C, the “polymerase ribozyme fitness (log ratio)” value was -4.23.

Turning to U7A C13U C22G A103C U130C, the “polymerase ribozyme fitness (log ratio)” value was -4.17. To G45C C88U belongs -0.355; to G110U G127U, -1.57. G23C C62A C99U U112C: the “polymerase ribozyme fitness (log ratio)” value is -6.42. As for G44C G45A G61U U78G, the “polymerase ribozyme fitness (log ratio)” value is -4.37. Consider A5U U9G G36A G39A U96G, for which the “polymerase ribozyme fitness (log ratio)” value was -5.14. C80G A118U: the “polymerase ribozyme fitness (log ratio)” value is -5.08.

For the variant C12A G45U C56U U78A, the “polymerase ribozyme fitness (log ratio)” value is -1.36. A27G U38A A83C: the “polymerase ribozyme fitness (log ratio)” value was -2.58.

On to A66G C72G A95U G117U U132C, for which the “polymerase ribozyme fitness (log ratio)” value was -6.16. In the case of C89U A90G U112A C123G, the “polymerase ribozyme fitness (log ratio)” value was 1.96.

Consider G39A A74U C82A, for which the “polymerase ribozyme fitness (log ratio)” value was -0.903.
